As a reminder, the Tm is the temperature at the midpoint of the melting transition.

The data set can be described thus: melting temperature; melt of duplexes. Conditions: sodium 0.0675 M; strand 1 µM.
“CGACGTGCGCTATGTGCTG+CAGCACATGTTGCACGTCG ((((((((...((((((((+))))))))...))))))))”: the Tm was determined as 49.6 °C. In the case of “CGACGTGCTCTATGTGCTG+CAGCACATCTAGCACGTCG (((((((((..((((((((+))))))))..)))))))))” it was 50.6 °C. For “CGACGTGCCTAATGTGCTG+CAGCACATTCTGCACGTCG ((((((((..(((((((((+)))))))))..))))))))” the value was 51 °C. In the case of “CGACGTGCAGCATGTGCTG+CAGCACATACAGCACGTCG ((((((((.(.((((((((+)))))))).).))))))))” it was 48.3 °C; in that of “CGACGTGCGCCATGTGCTG+CAGCACATGACGCACGTCG (((((((((.(((((((((+))))))))).)))))))))”, 59.3 °C; in that of “CGACGTGCTTTATGTGCTG+CAGCACATCGAGCACGTCG (((((((((..((((((((+))))))))..)))))))))”, 51.3 °C. Regarding “CGACGTGCAGAATGTGCTG+CAGCACATGCTGCACGTCG ((((((((((.((((((((+)))))))).))))))))))”, the Tm turned out to be 58.6 °C.

Turning to “CGACGTGCTTGATGTGCTG+CAGCACATTTCGCACGTCG ((((((((...((((((((+))))))))...))))))))”, the melting temperature (Tm) stood at 48.5 °C. In the case of “CGACGTGCCGTATGTGCTG+CAGCACATTGTGCACGTCG ((((((((...((((((((+))))))))...))))))))” it was 45.5 °C; in that of “CGACGTGCGGCATGTGCTG+CAGCACATCTCGCACGTCG (((((((((..((((((((+))))))))..)))))))))”, 53.4 °C. For “CGACGTGCCCTATGTGCTG+CAGCACATGATGCACGTCG ((((((((...((((((((+))))))))...))))))))” the value was 48.6 °C; for “CGACGTGCAGTATGTGCTG+CAGCACATCGAGCACGTCG ((((((((...((((((((+))))))))...))))))))”, 50.1 °C.

Take “CGACGTGCACGATGTGCTG+CAGCACATTCTGCACGTCG (((((((((..((((((((+))))))))..)))))))))”: the Tm was 49.2 °C. In the case of “CGACGTGCAACATGTGCTG+CAGCACATCGTGCACGTCG (((((((((..((((((((+))))))))..)))))))))” it was 47.9 °C.

As to “CGACGTGCCGGATGTGCTG+CAGCACATCTGGCACGTCG (((((((((.(((((((((+))))))))).)))))))))”, the Tm is 62.7 °C. For “CGACGTGCCGTATGTGCTG+CAGCACATAGTGCACGTCG ((((((((..(((((((((+)))))))))..))))))))” the value was 49.5 °C. On to “CGACGTGCCCAATGTGCTG+CAGCACATCAAGCACGTCG ((((((((...((((((((+))))))))...))))))))”, for which the Tm turned out to be 48.9 °C. With “CGACGTGCCACATGTGCTG+CAGCACATGGTGCACGTCG ((((((((..(((((((((+)))))))))..))))))))”, the Tm is 53.2 °C. In the case of “CGACGTGCCACATGTGCTG+CAGCACATGCCGCACGTCG ((((((((..(((((((((+)))))))))..))))))))” it was 52 °C. “CGACGTGCTATATGTGCTG+CAGCACATGCGGCACGTCG ((((((((...((((((((+))))))))...))))))))”: the midpoint of thermal melting (Tm) came to 49.4 °C. In the case of “CGACGTGCTCGATGTGCTG+CAGCACATTTCGCACGTCG ((((((((...((((((((+))))))))...))))))))” it was 48.1 °C. In the case of “CGACGTGCAATATGTGCTG+CAGCACATCAAGCACGTCG ((((((((...((((((((+))))))))...))))))))” it was 48 °C; in that of “CGACGTGCCATATGTGCTG+CAGCACATGACGCACGTCG ((((((((...((((((((+))))))))...))))))))”, 45.5 °C. For the substance “CGACGTGCTGGATGTGCTG+CAGCACATTCCGCACGTCG ((((((((.(.((((((((+)))))))).).))))))))”, the Tm amounted to 53.9 °C. In the case of “CGACGTGCACAATGTGCTG+CAGCACATGTAGCACGTCG ((((((((...((((((((+))))))))...))))))))” it was 50.7 °C. For “CGACGTGCGCGATGTGCTG+CAGCACATAACGCACGTCG (((((((((..((((((((+))))))))..)))))))))” the value was 54.4 °C; for “CGACGTGCAGGATGTGCTG+CAGCACATCCAGCACGTCG ((((((((.((((((((((+)))))))))).))))))))”, 59.8 °C; for “CGACGTGCAGCATGTGCTG+CAGCACATTCCGCACGTCG ((((((((.(.((((((((+)))))))).).))))))))”, 46.4 °C. In the case of “CGACGTGCCTTATGTGCTG+CAGCACATCCTGCACGTCG ((((((((...((((((((+))))))))...))))))))” it was 47.2 °C; in that of “CGACGTGCATAATGTGCTG+CAGCACATTACGCACGTCG ((((((((.((((((((((+)))))))))).))))))))”, 54.4 °C.

Turning to “CGACGTGCCGGATGTGCTG+CAGCACATACCGCACGTCG ((((((((.(.((((((((+)))))))).).))))))))”, the melting temperature (Tm) was 53.6 °C. Turning to “CGACGTGCGCGATGTGCTG+CAGCACATAAGGCACGTCG ((((((((...((((((((+))))))))...))))))))”, the Tm amounted to 50 °C.

On to “CGACGTGCCTCATGTGCTG+CAGCACATGCAGCACGTCG ((((((((..(((((((((+)))))))))..))))))))”, for which the Tm amounted to 52.8 °C. On to “CGACGTGCCCAATGTGCTG+CAGCACATAGCGCACGTCG ((((((((.(.((((((((+)))))))).).))))))))”, for which the Tm was determined as 48.9 °C. Turning to “CGACGTGCCCAATGTGCTG+CAGCACATGTTGCACGTCG ((((((((...((((((((+))))))))...))))))))”, the Tm was 49.4 °C. In the case of “CGACGTGCACGATGTGCTG+CAGCACATGGGGCACGTCG ((((((((.(.((((((((+)))))))).).))))))))” it was 54.9 °C; in that of “CGACGTGCTGCATGTGCTG+CAGCACATTGTGCACGTCG ((((((((...((((((((+))))))))...))))))))”, 45.5 °C. On to “CGACGTGCTAAATGTGCTG+CAGCACATCTGGCACGTCG ((((((((.(.((((((((+)))))))).).))))))))”, for which the Tm is 51.1 °C.

Turning to “CGACGTGCCGGATGTGCTG+CAGCACATGCGGCACGTCG ((((((((((.((((((((+)))))))).))))))))))”, the melting temperature (Tm) stood at 62.6 °C. For “CGACGTGCGGAATGTGCTG+CAGCACATAAGGCACGTCG ((((((((...((((((((+))))))))...))))))))” the value was 51.5 °C; for “CGACGTGCGGCATGTGCTG+CAGCACATGACGCACGTCG (((((((((.(((((((((+))))))))).)))))))))”, 64 °C.

Turning to “CGACGTGCGTTATGTGCTG+CAGCACATAATGCACGTCG ((((((((.((((((((((+)))))))))).))))))))”, the Tm amounted to 57.4 °C.

With “CGACGTGCGACATGTGCTG+CAGCACATTTAGCACGTCG ((((((((.(.((((((((+)))))))).).))))))))”, the Tm is 52.2 °C. For “CGACGTGCTGCATGTGCTG+CAGCACATCTTGCACGTCG ((((((((...((((((((+))))))))...))))))))” the value was 50.1 °C; for “CGACGTGCTTAATGTGCTG+CAGCACATTATGCACGTCG ((((((((.((((((((((+)))))))))).))))))))”, 56.5 °C. As for “CGACGTGCAAGATGTGCTG+CAGCACATTGTGCACGTCG (((((((((..((((((((+))))))))..)))))))))”, the Tm was 50.6 °C. On to “CGACGTGCTGTATGTGCTG+CAGCACATGTAGCACGTCG (((((((((..((((((((+))))))))..)))))))))”, for which the Tm came out at 53.3 °C.

Turning to “CGACGTGCGACATGTGCTG+CAGCACATTCCGCACGTCG (((((((((..((((((((+))))))))..)))))))))”, the Tm is 53.6 °C.

With “CGACGTGCTCTATGTGCTG+CAGCACATCGCGCACGTCG ((((((((.(.((((((((+)))))))).).))))))))”, the Tm amounted to 48.3 °C.

On to “CGACGTGCTTCATGTGCTG+CAGCACATTACGCACGTCG ((((((((.(.((((((((+)))))))).).))))))))”, for which the Tm came to 47.8 °C. For “CGACGTGCATCATGTGCTG+CAGCACATCTAGCACGTCG ((((((((...((((((((+))))))))...))))))))” the value was 47.3 °C. For “CGACGTGCCTCATGTGCTG+CAGCACATTCGGCACGTCG (((((((((..((((((((+))))))))..)))))))))” the value was 53 °C; for “CGACGTGCTATATGTGCTG+CAGCACATTACGCACGTCG ((((((((...((((((((+))))))))...))))))))”, 49.3 °C.

Turning to “CGACGTGCCAGATGTGCTG+CAGCACATCAGGCACGTCG (((((((((.(((((((((+))))))))).)))))))))”, the Tm is 59.8 °C. Turning to “CGACGTGCGTTATGTGCTG+CAGCACATTCGGCACGTCG ((((((((...((((((((+))))))))...))))))))”, the Tm amounted to 49.8 °C. For “CGACGTGCGGCATGTGCTG+CAGCACATAGTGCACGTCG ((((((((...((((((((+))))))))...))))))))” the value was 45.9 °C; for “CGACGTGCTTTATGTGCTG+CAGCACATTTCGCACGTCG ((((((((...((((((((+))))))))...))))))))”, 47.7 °C. Consider “CGACGTGCTCAATGTGCTG+CAGCACATTCGGCACGTCG ((((((((..(((((((((+)))))))))..))))))))”, for which the Tm came to 51.2 °C. “CGACGTGCCGTATGTGCTG+CAGCACATAACGCACGTCG ((((((((..(((((((((+)))))))))..))))))))”: the Tm was 52.6 °C.

For the substance “CGACGTGCCTGATGTGCTG+CAGCACATCAGGCACGTCG (((((((((((((((((((+)))))))))))))))))))”, the Tm was 65.9 °C. “CGACGTGCCTCATGTGCTG+CAGCACATAATGCACGTCG ((((((((.(.((((((((+)))))))).).))))))))”: the Tm turned out to be 48 °C. In the case of “CGACGTGCTCAATGTGCTG+CAGCACATGAAGCACGTCG (((((((((..((((((((+))))))))..)))))))))” it was 53.6 °C; in that of “CGACGTGCACTATGTGCTG+CAGCACATTTGGCACGTCG ((((((((...((((((((+))))))))...))))))))”, 45.3 °C; in that of “CGACGTGCAGCATGTGCTG+CAGCACATGCCGCACGTCG ((((((((.((((((((((+)))))))))).))))))))”, 59.1 °C. On to “CGACGTGCTATATGTGCTG+CAGCACATATCGCACGTCG ((((((((.((((((((((+)))))))))).))))))))”, for which the Tm was found to be 54.9 °C.

“CGACGTGCAGTATGTGCTG+CAGCACATCAGGCACGTCG ((((((((...((((((((+))))))))...))))))))”: the Tm is 50.2 °C.

These data come from the array DNA melting data of Ke et al..
